Four molecules from US20200157194A1 (Regeneron, published 2020) can be followed below.

“And” between values parts separate entries of the source, which are not always exact repeats. Equal entries are not always repeated. Where two headings read alike, the source gives them in different places.

The labels stand for the following.
T1: human GREM1 (hGREM1-His; SEQ ID NO: 595) (human, UniProt O60565 25-184)
T1 construct: also called biotin-hGREM1-His; recombinant human GREM1 protein
T1 sequence: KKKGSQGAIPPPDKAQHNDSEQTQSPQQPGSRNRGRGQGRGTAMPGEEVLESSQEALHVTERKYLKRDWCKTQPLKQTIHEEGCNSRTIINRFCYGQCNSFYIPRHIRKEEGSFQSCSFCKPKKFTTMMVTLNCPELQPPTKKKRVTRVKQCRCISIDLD

B1: H2bM2786N (antibody, mouse IgG2, V domains shown)
VH: EVHLLESGGGLVQPGGSLRLSCAASGFTFSSYVMNWVRQAPGKGLEWVSAISGSGGSTYYGDSVKGRSTISRDNSKNTLYLQMKSLRAEDTAVYYCAKGDIAPIVFDAFDIWGQGTMVTVSS
VL: DIQMTQSPSSLSASVGDRVTITCQASQDISNCLNWYQHKPGKAPKLLIYDASYLETGVPSRFSGSGSGTDFTFTISSLQPEDIATYYCQQYDNLPYTFGQGTKLEIK
notes: H2M prefix = mouse IgG2 Fc (here H2bM); also called H2M2786N
B2: H2bM2782N (antibody, mouse IgG2, V domains shown)
VH: EVQLVESGGGLVQPGGSLRLSCAASGFTFSSYSMNWVRQAPGKGLEWVSSISSSSNYINYADSIKGRFTISRDNAKNSLYLQMNSLRAEDTAVYYCARVNWDYPFDCWGRGTLVTVSS
VL: DIQMTQSPSSLSASVGDRVTITCRASQDIRHYLVWYQQKPGKVPKLLIYAASTLQSGVPSRFSGSGSGTDFILTISSLQPEDVATYYCQKYNSAPFTFGPGTKVDIK
notes: H2M prefix = mouse IgG2 Fc (here H2bM); also called H2M2782N
B3: H3M2788N (antibody, V domains shown)
VH: QVQLVESGGGVVQPGRSLRLSCAASGFTFSSHGMHWVRQAPGKGLEWVAVIWYDGSNKYHADSVKGRFTIYRDNSKNTLDLQMNSLRVEDTAMYYCAREDSNNEDLDYWGQGTLVTVSS
VL: DIQMTQSPSSLSASVGDRVTITCRASQGIRNDLGWFQQKPGKAPKRLIYVASNLQSGVPSRFSGSGSGTEFTLTISSLQPEDFATYYCLQHSNYPPWTFGQGTKVEIK
notes: H3M prefix marks the Fc (chimeric, mouse constant domains)
B4: recombinant human GREM1 (hGREM1-His; C-terminal 10His tagged, R&D, #5190-GR) (ligand)
chain: KKKGSQGAIPPPDKAQHNDSEQTQSPQQPGSRNRGRGQGRGTAMPGEEVLESSQEALHVTERKYLKRDWCKTQPLKQTIHEEGCNSRTIINRFCYGQCNSFYIPRHIRKEEGSFQSCSFCKPKKFTTMMVTLNCPELQPPTKKKRVTRVKQCRCISIDLDHHHHHHHHHH

In assay [1] the target is B4. As to the kind of experiment: cell-based or functional assay.
Assay [2] deals with T1, human GREM1 (hGREM1-His; SEQ ID NO: 595). The assay can be described thus: SPR, Biacore T200, 25 C, mAb captured, hGREM1-His injected.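 Note: Heparin-supplemented HBS-EP+ used as running buffer, association and dissociation phases followed, Kd computed as koff divided by kon and half-life derived from koff.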
The target in assay [3] is recombinant human BMP4 (hBMP4; R&D, #314-BP/CF) (human). As to the kind of experiment: cell-based or functional assay.
Chain of recombinant human BMP4 (hBMP4; R&D, #314-BP/CF) (human) (P12644 293-408): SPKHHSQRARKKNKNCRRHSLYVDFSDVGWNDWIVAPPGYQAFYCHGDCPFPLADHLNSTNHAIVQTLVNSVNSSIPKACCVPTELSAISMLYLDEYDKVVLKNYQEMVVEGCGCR
Assay [4] has the same target. As to the kind of experiment: cell-based or functional assay. This is another data set of the same source.
Assay [5] shares this target. As to the kind of experiment: cell-based or functional assay. This is another data set of the same source.

As for B1, the “IC50 [M], inhibition of hGREM1-His, W-20-17/BRE-luc luciferase (200 pM hBMP4, 20 nM hGREM1-His)” value (from here on “IC50 [M], inhibition of hGREM1-His”) in assay [1] stood at 1.9e-08 M. In assay [2], this molecule gave a dissociation constant Kd of 33 nM, a koff of 0.006 s⁻¹, an on-rate (kon) of 180000 M⁻¹ s⁻¹ and a t1/2 of 1.9 min.
With B2, in assay [1], the “IC50 [M], inhibition of hGREM1-His” value amounted to 3.5e-09 M. In assay [2], this molecule gave a dissociation constant Kd of 15.3 nM, a koff of 0.00189 s⁻¹, an on-rate (kon) of 123000 M⁻¹ s⁻¹ and a t1/2 of 6.1 min.
As to B3, in assay [1], the “IC50 [M], inhibition of hGREM1-His” value is 2.5e-08 M. In assay [2], this molecule came in with a dissociation constant Kd of 4.2 nM, a koff of 0.00035 s⁻¹, a kon of 80000 M⁻¹ s⁻¹ and a t1/2 of 33 min.
For the molecule B4, in assay [3], the “hGrem1-His IC50 (nM), inhibition of 100 pM hBMP4, W-20-17/BRE-luc luciferase” value was 6 nM and 4.3 nM and 4.2 nM and 5.4 nM; the “hGrem1-His IC50 (nM), inhibition of 200 pM hBMP4, W-20-17/BRE-luc luciferase” value stood at 10.3 nM. Moreover, in assay [4], the “hGrem1-His IC50 (nM), inhibition of 100 pM hBMP4, W-20-17/BRE-luc luciferase” value came to 2.9 nM. In addition, the “hGREM1-His, IC50 (M); W-20-17 cell differentiation assay (alkaline phosphatase)” value in assay [5] is 4.4e-09 M.
